Measured values as given in US20250277006A1.

Target: adalimumab
Test: SPR; ligand on CM5; max response at 800 nM, rounded to 50 Ru

Substance	max response (Ru)
ZGE0214 (domain E with A/R/I at positions 33/40/51) (designed binder)	4100 Ru
ZGE0234 (domain E with A/G/R at positions 33/40/51) (designed binder)	2950 Ru
